Test: soluble on expression in E. coli; label from the status in PepcDB or PDB records

Sequence	soluble on expression in E. coli
MGSDKIHHHHHHMVNHTQFRQWGRKVIDIEKAALDNLYQYVDSVEFDQACQLIMQCKGKVIVMGMGKSGHIGNKISATFASTGTPAFFVHPGEASHGDLGALAKNDIVLAISNSGESSEILTLMPVIQRMGVPVIAVTGKPDSNMARLSKIHLCIQVQEEACPLGLAPTSSTTATLAMGDALAIALLQAKGFTRDDFALSHPGGSLGRKLLLKVDDVMHQGDDLPIVNDDICITDALYEISKKGLGMTAVVDHASKLVGIFTDGDLRRVIDADVNLRTTSIAHVMTKNCVTSPAGILAAQALQIMDEKSINGLIVVNEKHQPIGALNMLDMVKAGVI	not soluble
MTYRVKIHKQVVKALQSLPKAHYRRFLEFRDILEYEPVPREKFDVIKLEGTGDLDLYRARLGDYRVIYSVNWKDKVIKILKLKPRGRAYK	soluble
MGHHHHHHSHMEAPPVTMMPVTGGTINMMEYLLQGSVLDHSLESLIHRLRGLCDNMEPETFLDHEMVFLLKGQQASPFVLRARRSMDRAGAPWHLRYLGQPEMGDKNRHALVRNCVDIATSENLTDFLMEMGFRMDHEFVAKGHLFRKGIMKIMVYKIFRILVPGNTDSTEALSLSYLVELSVVAPAGQDMVSDDMKNFAEQLKPLVHLEKIDPKRLM	soluble
MSLNTSRKERSVSTFSIVGYDPKTDELGIAVQSKFLGVGAIVPWAKAGVGAIATQSYANTSYGSKGLDLLARGKTAEETLALLINEDADRHLRQVGIVDAKGRAASFTGQGCYEWAGSMTGHCFAVQGNLLVSEETVKTMAQKFVQATGSLAERLLLTLEAGQCAGGDRRGKQSAALLIVKEKGGYGGFNDRLIDLRVDDHPEPIQELKRIFELQQLYFAKPKEQDQLPLTDDRISIIKSSLHSLGYLSLTQHWRDALQQFIATENLEGRMGTGTQTIDRVVFSFLQKKAKEEGHHHHHH	soluble
MNLDTPLADGLERAKRFEQGLQQVVLGQERPIRLLTLAVFARGHALLEGGVGVGKTTLLRAVARGIGGDYERIEGTIDLMPNDLVYYTYLDEQGRPGVAPGPLLKHGEQLSIFFFNEINRARPQVHSLLLRVMAERSVSAFNREYRFPYLQVFADRNRVEKEETFELPAAARDRFMLEIAIEPPADPAHIDQILFDPRFYDPDRLVASAPADTLSFRELNGIAEALQGGIHVSARLRSYVQDLWRATRRPEDFGIALHEADSGDMIEAGSSPRGMSYLVRLARVQAWLSGRDRVEPEDVQYVFAPAVGHRIFLKPVYEYRRAELIPELVGKLIRRIAAPLEHHHHHH	not soluble
MSQVKRANENRETARFIKKHKKQVTNPIDEKNGTSNCIVRVPIALYVSLAPMYLENPLQGVMKQHLNPLVMKYNNKVGGVVLGYEGLKILDADPLSKEDTSEKLIKITPDTPFGFTWCHVNLYVWQPQVGDVLEGYIFIQSASHIGLLIHDAFNASIKKNNIPVDWTFVHNDGNRSLGHWVDSNGEPIDGKLRFTVRNVHTTGRVVSVDGTLIS	soluble
MYEGTLSMAVQSLGQAVNYCKRFGPRLVATKMLYKLLPQAGFSVCRQIEEYLKHYYLPDVAYHKTEFCGKIQADAPIWVMWWQGEERMPDVVRLAVASMRRFAGRRPVMLITKDNYHDYAKRSVDFYRYVEHGAISLTHFSDYVRFDLLHKYGGFWLDATLLMTAPIPDFVNDLRLFSIKHGTIRPGEQWSPMWSRNWTAYCWGGCAGDPFFDFMLRFFERYHEREGSVMIDYFLIDRIISVAYQEFVDVRNTIDAIPVNNVDVLTSPIVNTASINHRSDDNGTFLHKLSWKEPPQPDCGNGQRSWFGQLLDQYGIRLEHHHHHH	not soluble
MAHHHHHHMALEIDIDNVISKLIEVRGTRPGKNVNLTENEIKILCLSSREIFLNQPILLELEAPIKICGDIHGQFYDLLRLFEYGGFPPDANYLFLGDYVDRGKQSLETICLLLAYKIKYPENFFLLRGNHECASINRIYGFYDECKRRYSVKLWKTFIDCFNCLPVAAIIDEKIFCMHGGLSPELNNMEQIRKITRPTDVPDNGLLCDLLWSDPEKEINGWGENDRGVSFTFGQDVVHNFLRKHELDLICRAHQVVEDGYEFFAKRQLVTLFSAPNYCGEFDNAGAMMSVDETLMCSFQILKPVEKKKAAN	not soluble
MKNEMLALILAGGQGTRLGKLTQSIAKPAVQFGGRYRIIDFALSNCANSGIHNVGVVTQYQPLALNNHIGNGSSWGLDGINSGVSILQPYSASEGNRWFEGTSHAIYQNIDYIDSVNPEYVLILSGDHIYKMDYDDMLQSHKDNNASLTVAVLDVPLKEASRFGIMNTDANNRIVEFEEKPAQPKSTKASMGIYIFDWQRLRNMLVAAEKSKVGMSDFGKNVIPNYLESGESVYAYEFSGYWKDVGTIESLWEANMEYISPENALDSRNRQWKIYSRNLISPPNFLGANAHVEDSLVVDGCFVDGTVKHSILSTGAQVREGAEVLDSVIMSGAIIGQGAKIKRAIIGEGAIISDGVEIDGTDEVQVVGYNEVVGVATDED	not soluble
MLLTLNALPFVLVNCGGKKKPAPPPKAAAKPMAAPAGGAGGAGGAGGAGKSDSFDSKKQDIPSSKKEEPVAPKKEDEGNYEELAIPQ	not soluble
GGDKQEAPITKNSIAGGQSESANSTMPGIVVPIISAETSHAAGNADPDVPDTAPLAIDTALESAWQPAKGDTLVLNFAQPYVISRVIVDSPTKDMTLEVRAGDTVVGTGTVTKSRTKITVTPAPAVTSLSIRVVGVPDGVSPEINDVKLVAKI	not soluble
MQLRKKLHEAIVDGEEDDCPKRKIKKLDIQVDAATKVFSNQHILHDIIEYTVDGDKSILDNLRLRLVSRSFNNVVLSKVRAEFKMVQVCPYQQPEGADEKEEPEYDESNDIEDRSFMINDRRTWFSQVPRFFEFLNSVARIRVRDLLFSGFTSPDQRIHECILYSLLDGNWYSLNSYKGADELCNGCAVCSGNCFPLLAEIALHCVTMVGSREEAFSRLTKMITQDVNCDQLDLVFSDRCMWSKGTLAHPREVIDRIVKAWRVKSINIRFMTEYSSIDHEMWSNKRIFTEMRFDEMFVTDHNIIRPRHERDHFERVEVDMQAGDEIATCFAESMGMFEQSGMSATAFQNVCANVKRIFPTQDMYLILPTELAHVASVEFDGFCKALLEFAWKDERTARHSRLFFRLYTFGITEEQVLRQTENQFKINCRPVAAMLSDSSVRRSFLQWLPGSTSTFDRSLLSFTDVWNNCVLHLEVCIEADC	not soluble
MLHLIVADSELETIPEEMLDDPGVRRFAKKRNKRVDRMILDSNYMHAFIDKYYPGESKRRGRPDIIYILLEMAQESILNRKNLLRTYIHTRNDFVIKISPITRMPKSYNRFIGLFEDLFEKEIITNNGKTLLSLERMKLDELLESLKKDRTILLHPKGEFKKPSEFISTEDIAAIIGGFSEGDFRSDVSNIPEKYSIFRDELTIWSVGLEIVASYERAIGLLLEHHHHHH	not soluble
GPGSMKRSRRATQQEDVMRALKEGVQALSVSSALSTKDLVCRGDHARAIQQFLEDEKHHTMQIFGMPGTGKTATVNFALAQLVSRRGTKPTAVFLNGFVVQKSSDIYYTLHHHLTKARLGAVEPCPVAQCASRIEKRFRHGWGGKPPALCVIVVDEVDKILEKHSKGFFKVVDWLTLPYANCKLITISNSMELQLDAKTKSRLGVVNQLVFSSYGTQELREILVHRVGAIEPKLFADQAVNQLCTQTASHYGDVRRLLQSASAAICGVLMRMRDDAVDVSSTDGIITLREIHTVVRQIFHDRFVEFITTMRMPALFITVAVLGKETEALIRKREVDCRIPLERLLAITQQAQRKCMNVLRPINRAAFMEEIELLRQVSLIEVCIGEDRIPIRCVDELLDAKEEVFVLLLQPYQMVVDSCRLHDAFGATYGAALHL	not soluble
MKKWFLLLIASLVGYIAYEDLTVGTLPASSKTPVVRENIGIPAYKVIKIKAGDTLLSIAEREQQGPLPVSIETLIRDFEKLNPEAKADALQIGKTYKIPVYEK	not soluble

Source: the DeepSol protein solubility set
